According to US6110707:

Legend:
[1] = target: human preproinsulin (human); details: scale: % of intracellular human insulin species left as proinsulin and intermediates
[2] = target: mutated human preproglucagon (arginine to alanine at amino acid residue 52) (human)
[3] = target: human preproglucagon (human)

PC2 (from UniProt P28841) (enzyme)
HPLC separation of intracellular immunoreactive insulin species (processing of human proinsulin to mature insulin in engineered RIN cells) [1]: 8

peptidylglycine alpha-amidating monooxygenase (PAM) (from UniProt P14925) (enzyme)
NON (% TOTAL): non-amidated GLP-1 as percentage of total GLP-1 (non-amidated and amidated), by two specific immunoassays (% non-amidated of total GLP-1) [2]: 59 | NON (% TOTAL): non-amidated GLP-1 as percentage of total GLP-1 (non-amidated and amidated), by two specific immunoassays (% non-amidated of total GLP-1) [3]: 49

PC3 (from UniProt P28840) (enzyme)
HPLC separation of intracellular immunoreactive insulin species (processing of human proinsulin to mature insulin in engineered RIN cells) [1]: 8
